Common to all, as to experiment: cell-based or functional assay
Assay [1] has as its target VP16AD-CfEcRCDEF chimeric polypeptide (Choristoneura fumiferana).
The target in assay [2] is VP16AD-DmEcRCDEF chimeric polypeptide (Drosophila melanogaster).
Assay [3] addresses Full length MmRXR (mouse Mus musculus RXR alpha) (Mus musculus) (UniProt P28700).
Assay [4] has as its target VP16AD-CfUSPDEF chimeric polypeptide (Choristoneura fumiferana).
Assay [5] has as its target VP16AD-MmRXRDEF chimeric polypeptide (Mus musculus).
The target in assay [6] is T1, B42AD:MmRXR-DEF fusion (Mus musculus).
T1 sequence: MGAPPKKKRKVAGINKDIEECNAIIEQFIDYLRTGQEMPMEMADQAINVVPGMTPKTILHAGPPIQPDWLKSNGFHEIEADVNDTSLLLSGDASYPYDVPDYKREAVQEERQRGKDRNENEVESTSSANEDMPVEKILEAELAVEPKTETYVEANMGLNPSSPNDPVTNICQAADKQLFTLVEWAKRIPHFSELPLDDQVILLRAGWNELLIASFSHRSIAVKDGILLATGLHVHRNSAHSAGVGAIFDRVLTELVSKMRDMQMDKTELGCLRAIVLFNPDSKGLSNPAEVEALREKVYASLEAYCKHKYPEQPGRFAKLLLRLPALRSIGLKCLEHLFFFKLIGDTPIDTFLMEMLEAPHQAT

In assay [1], “Gal4DBD-MmRXRDEF chimeric polypeptide (receptor)” returned a Mean Fold Activation Through N-(2-ethyl-3-methoxybenzoyl)-N'-(3,5-dimethylbenzoyl)-N'-t-butylhydrazine; pGAL4RELuc reporter, 3T3 cells of 47 fold; a Mean Fold Activation Through N-(2-ethyl-3-methoxybenzoyl)-N'-(3,5-dimethylbenzoyl)-N'-t-butylhydrazine; pGAL4RELuc reporter, 293 cells of 17 fold; a Mean Fold Activation with 50 µM N-(2-ethyl-3-methoxybenzoyl)-N'-(3,5-dimethylbenzoyl)-N'-t-butylhydrazine; pGAL4RELuc reporter, CHO cells of 85 fold; a Mean Fold Induction at 1.0 µM Concentration of Muristerone A; switch 1.3 in 3T3 cells of 1 fold. In assay [1], the Mean Fold Induction at 1.0 µM Concentration of N'-(3,4-(1,2-ethylenedioxy)-2-methylbenzoyl)-N'-(3,5-dimethylbenzoyl)-N'-tert-butylhydrazine; switch 1.3 in 3T3 cells amounted to 54 fold, the Mean Fold Induction at 1.0 µM Concentration of N-(2-ethyl-3-methoxybenzoyl)-N'-3,5-dimethylbenzoyl)-N'-tert-butylhydrazine; switch 1.3 in 3T3 cells came to 71 fold and the Mean Fold Induction at 1.0 µM Concentration of Ponasterone A; switch 1.3 in 3T3 cells turned out to be 1 fold. In assay [2], the Mean Fold Activation Through N-(2-ethyl-3-methoxybenzoyl)-N'-(3,5-dimethylbenzoyl)-N'-t-butylhydrazine; pGAL4RELuc reporter, 3T3 cells is 269 fold; the Mean Fold Activation Through N-(2-ethyl-3-methoxybenzoyl)-N'-(3,5-dimethylbenzoyl)-N'-t-butylhydrazine; pGAL4RELuc reporter, 293 cells was determined as 3 fold; the Mean Fold Activation with 50 µM N-(2-ethyl-3-methoxybenzoyl)-N'-(3,5-dimethylbenzoyl)-N'-t-butylhydrazine; pGAL4RELuc reporter, CHO cells amounted to 312 fold.
For “Drosophila melanogaster EcR with a modified DNABD fused to VP16AD (DmVgRXR system, Invitrogen) (receptor)”, in assay [3], the Mean Fold Activation Through N-(2-ethyl-3-methoxybenzoyl)-N'-(3,5-dimethylbenzoyl)-N'-t-butylhydrazine; pIND(SP1)LacZ reporter, 3T3 cells stood at 21 fold; the Mean Fold Activation Through N-(2-ethyl-3-methoxybenzoyl)-N'-(3,5-dimethylbenzoyl)-N'-t-butylhydrazine; pIND(SP1)LacZ reporter, 293 cells turned out to be 21 fold; the Mean Fold Activation with 50 µM N-(2-ethyl-3-methoxybenzoyl)-N'-(3,5-dimethylbenzoyl)-N'-t-butylhydrazine; pIND(SP1)LacZ reporter, CHO cells was 14 fold.
In assay [3], “Truncated CfEcR comprising a partial A/B domain and the complete CDEF domains, fused to VP16AD (CfVgRXR) (receptor)” showed a Mean Fold Activation Through N-(2-ethyl-3-methoxybenzoyl)-N'-(3,5-dimethylbenzoyl)-N'-t-butylhydrazine; pIND(SP1)LacZ reporter, 3T3 cells of 19 fold; a Mean Fold Activation Through N-(2-ethyl-3-methoxybenzoyl)-N'-(3,5-dimethylbenzoyl)-N'-t-butylhydrazine; pIND(SP1)LacZ reporter, 293 cells of 12 fold; a Mean Fold Activation with 50 µM N-(2-ethyl-3-methoxybenzoyl)-N'-(3,5-dimethylbenzoyl)-N'-t-butylhydrazine; pIND(SP1)LacZ reporter, CHO cells of 27 fold.
“Gal4DBD-CfEcRDEF chimeric polypeptide (receptor)”: in assay [4], the Mean Fold Activation Through N-(2-ethyl-3-methoxybenzoyl)-N'-(3,5-dimethylbenzoyl)-N'-t-butylhydrazine; pGAL4RELuc reporter, 3T3 cells came to 2 fold; the Mean Fold Activation Through N-(2-ethyl-3-methoxybenzoyl)-N'-(3,5-dimethylbenzoyl)-N'-t-butylhydrazine; pGAL4RELuc reporter, 293 cells stood at 2 fold; the Mean Fold Activation with 50 µM N-(2-ethyl-3-methoxybenzoyl)-N'-(3,5-dimethylbenzoyl)-N'-t-butylhydrazine; pGAL4RELuc reporter, CHO cells is 2 fold. In assay [5], this molecule gave a Mean Fold Activation Through N-(2-ethyl-3-methoxybenzoyl)-N'-(3,5-dimethylbenzoyl)-N'-t-butylhydrazine; pGAL4RELuc reporter, 3T3 cells of 1120 fold; a Mean Fold Activation Through N-(2-ethyl-3-methoxybenzoyl)-N'-(3,5-dimethylbenzoyl)-N'-t-butylhydrazine; pGAL4RELuc reporter, 293 cells of 125 fold; a Mean Fold Activation with 50 µM N-(2-ethyl-3-methoxybenzoyl)-N'-(3,5-dimethylbenzoyl)-N'-t-butylhydrazine; pGAL4RELuc reporter, CHO cells of 267 fold; a Mean Fold Induction at 1.0 µM Concentration of Muristerone A; switch 1.1 in 3T3 cells of 1 fold. In assay [5], the Mean Fold Induction at 1.0 µM Concentration of N'-(3,4-(1,2-ethylenedioxy)-2-methylbenzoyl)-N'-(3,5-dimethylbenzoyl)-N'-tert-butylhydrazine; switch 1.1 in 3T3 cells stood at 601 fold, the Mean Fold Induction at 1.0 µM Concentration of N-(2-ethyl-3-methoxybenzoyl)-N'-(3,5-dimethylbenzoyl)-N'-tert-butylhydrazine; switch 1.1 in 3T3 cells turned out to be 116 fold, the Mean Fold Induction at 1.0 µM Concentration of Ponasterone A; switch 1.1 in 3T3 cells is 1 fold and the ligand concentration at which transactivation was initiated (non-steroid ligands) is below 1 µM. This molecule came in with a ligand concentration at which transactivation was initiated (steroid ligands) in assay [5] of 50 µM.
As for “Gal4DBD-CfUSPDEF chimeric polypeptide (receptor)”, in assay [1], the Mean Fold Activation Through N-(2-ethyl-3-methoxybenzoyl)-N'-(3,5-dimethylbenzoyl)-N'-t-butylhydrazine; pGAL4RELuc reporter, 3T3 cells was 3 fold; the Mean Fold Activation Through N-(2-ethyl-3-methoxybenzoyl)-N'-(3,5-dimethylbenzoyl)-N'-t-butylhydrazine; pGAL4RELuc reporter, 293 cells was determined as 2 fold; the Mean Fold Activation with 50 µM N-(2-ethyl-3-methoxybenzoyl)-N'-(3,5-dimethylbenzoyl)-N'-t-butylhydrazine; pGAL4RELuc reporter, CHO cells was found to be 2 fold.

B1: LexA:CfEcRDEF fusion (receptor)
chain: MKALTARQQEVFDLIRDHISQTGMPPTRAEIAQRLGFRSPNAAEEHLKALARKGVIEIVSGASRGIRLLQEEEEGLPLVGRVAAGEPLLAQQHIEGHYQVDPSLFKPNADFLLRVSGMSMKDIGIMDGDLLAVHKTQDVRNGQVVVARIDDEVTVKRLKKQGNKVELLPENSEFKPIVVDLRQQSFTIEGLAVGVIRNGDWLPECVVPETQCAMKRKEKKAQKEKDKLPVSTTTVDDHMPPIMQCEPPPPEAARIHEVVPRFLSDKLLETNRQKNIPQLTANQQFLIARLIWYQDGYEQPSDEDLKRITQTWQQADDENEESDTPFRQITEMTILTVQLIVEFAKGLPGFAKISQPDQITLLKACSSEVMMLRVARRYDAASDSVLFANNQAYTRDNYRKAGMAYVIEDLLHFCRCMYSMALDNIHYALLTAVVIFSDRPGLEQPQLVEEIQRYYLNTLRIYILNQLSGSARSSVIYGKILSILSELRTLGMQNSNMCISLKLKNRKLPPFLEEIWDVADMSHTQPPPILESPTNL
Turning to B1, the fold induction of the LacZ reporter in a yeast two-hybrid assay with GS-E in assay [6] was 1800 fold.
